Here are results for four variants from PMC7960543 (The Journal of Biological Chemistry, 2021).

B1: recombinant soluble CD40L (residues 118–261) with no N-terminal KGD motif, wild type [not stated] / CD40 fragment (residues 21–144) fused to GST [not stated] (parent complex)
chain 1: QNPQIAAHVISEASSKTTSVLQWAEKGYYTMSNNLVTLENGKQLTVKRQGLYYIYAQVTFCSNREASSQAPFIASLCLKSPGRFERILLRAANTHSSAKPCGQQSIHLGGVFELQPGASVFVNVTDPSQVSHGTGFTSFGLLKL
chain 2: EPPTACREKQYLINSQCCSLCQPGQKLVSDCTEFTETECLPCGESEFLDTWNRETHCHQHKYCDPNLGLRVQQKGTSETDTICTCEEGWHCTSEACESCVLHRSCSPGFGVKQIATGVSDTICE

In this test the parent is B1. Description: ELISA; GST-CD40 (21–144) immobilized at 100 μg/ml in PBS; CD40L mutants 20 μg/ml; detection with anti-histidine Abs; read off a plot.
For the variant chain 1 G27E, the response was ~0.35 OD450.

As to chain 1 K26T, the response was ~0.32 OD450.

Turning to chain 1 S11R, chain 1 E12G, the response was ~0.29 OD450.

In the case of chain 1 L38P, the response is ~0.24 OD450.
